Test: yeast display, Sf9 membrane polyspecificity reagent, FACS + sequencing; frameworks hold sequencing errors
How it was run: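 A nanobody's polyreactivity label depends on the gate it was sorted from. Yeast display cells were stained with 10% biotinylated, detergent-solubilized Sf9 membrane reagent for 1 hour at 4 °C, enriched on streptavidin microbeads and sorted by FACS. The low and high (top ~1%) gates were set on anti-HA fluorescence for expression and streptavidin fluorescence for reagent binding.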

Row | Sequence | polyreactivity (PSR sort gate)
1 | QVQLVESGGGLVQAGGSLRLSCAASGRIFVPYAMGWYRQAPGKERELVAVISRGGSTYYADSVKGRFTISRDNAKNTVYLQMNSLKPEDTAVYYCAARGVNRQGFNYWGQGTQVTVSS | high polyreactivity
2 | QVQLVESGGGLVQAGGSLRLSCAASGRIFVQNAMGWYRQAPGKEREVVAAISSRGTSTYYADSVKGRFTISRDNAKNTVYLQMNSLKPEDTALYYCAAREWRTFDYWGQGTQVTVSS | low polyreactivity
3 | QVQLVESGGGLVQAGGSLRLSCAASGRIFVQYVMGWYRPAPGKERELVAAITGSDSTTYYADSVKGRFTISRDNAKNTVYLQMNSLKPEDTAVYYCNKDLWLQDDYWGQGTQVTVSS | low polyreactivity
4 | QVQLVESGGGLVQAGGSLRLSCAASGRIFVRNAMGWYRQAPGKERELVAAISWSSGGTYYADSVKGRFTISRDNAKNTVYLQMNSLKPEDTAVYYCNADPSRAGDYWGQGTQVTVSS | low polyreactivity
5 | QVQLVESGGGLVQAGGSLRLSCAASGRIFVRYAMGWYRQAPGKERELVAAIRWSGGRTYYADSVKGRFTISRDNAKNTFYLQMNSLKPEDTAVYYCAVRYRDLFGYWGQGTQVTVSS | high polyreactivity
6 | QVQLVESGGGLVQAGGSLRLSCAASGRIFVRYAMGWYRQAPGKERELVAAISSGGRTHYADSVKGRFTISRDNAKNTVYLQRNSLKPEDTAVYDCATRLRSTTRYYYWGQGTQVTVSS | high polyreactivity
7 | QVQLVESGGGLVQAGGSLRLSCAASGRIFVRYAMGWYRQAPGKERELVAAISSRGGTTYYADSVKGRFTISRDNAKNTVYLQMNSLKPEDTAVYYCAALYDSTYGGVLFDYWGQGTQVTVSS | low polyreactivity
8 | QVQLVESGGGLVQAGGSLRLSCAASGRIFVRYVMGWYRLAPGKERELVAAINWNGGSTYYADSVKGRFTISRDNAKNTVYLQMNSLKPEDTAVYYGAARGQFYNTRGGYWGQGTQVTVSS | high polyreactivity
9 | QVQLVESGGGLVQAGGSLRLSCAASGRIFVSNAMGWYRQAPGKERELVAAISKSGGRTYYADSVKGRFTISRDNAKNTVYLQMNSLKPEDTAVYYCAARSRVSPRYDYWGQGTQVTVSS | high polyreactivity
10 | QVQLVESGGGLVQAGGSLRLSCAASGRIFVSNAMGWYRQAPGKERELVAGINSGDRTYYADSVKGRFTISRDNAKNTVYLQMNSLNPEDTAVYYFADSSRRGTGLRYYWGQGTQVTVSS | high polyreactivity
11 | QVQLVESGGGLVQAGGSLRLSCAASGRIFVSYAMGWYRQAPGKERELVADMSWSGSITYYADSVKGRFTISRDNAKNTVYLQMNSLKPEDTAVYYCAKKSIYDYSTTYPEYDYWGQGTQVTVSS | low polyreactivity
12 | QVQLVESGGGLVQAGGSLRLSCAASGRIFVTNAMGWYRQAPGKERELVAAISTGGSTNYADSVKGRFTISRDNAKNTVYVQRNSLKPEDTAVYYCNRGSRYSHKYDYWGQGTQVTVSP | high polyreactivity
13 | QVQLVESGGGLVQAGGSLRLSCAASGRIFVTNAMGWYRQAPGKERELVAAISYRGGRTYYADSVKGRFTISRDNAKNTVYLQMNSLKPEDTAVYYCNAVTRGPFDYWGQGTQVTVSS | high polyreactivity
14 | QVQLVESGGGLVQAGGSLRLSCAASGRIFVTYVMGWYRPAPGKERELVAAISRRGGTTYYADSVKGRFTISRDNAKNTVYLQMNSLKPEDTAVYYCNVARHYAVESGYWGQGTQVTVSS | high polyreactivity
15 | QVQLVESGGGLVQAGGSLRLSCAASGRIFVVYAMGWYRQAPGKERELVAAIRSGGSTNYADSVKGRFTISRDNAKNTVYLQMNSLKPEDTAVYYCADCKWHSAYDYWGQGTQVTVSS | high polyreactivity
16 | QVQLVESGGGLVQAGGSLRLSCAASGRIFVVYAMGWYRQAPGKERELVATITSGGSTYYADSVKGRFTISRDNAKNTVYLQMNSLKPEDTAVYYCAAYAYIFLDWGGYPYYLYEYDYWGQGTQVTVSS | low polyreactivity
17 | QVQLVESGGGLVQAGGSLRLSCAASGRIFVVYVMGWYRQAPGKERELVAAISYSTGSTYYADSVKGRFTISRDNAKNTVYLQMKSLKPEDTAVYYCAVAAARKSFVSRYYYWGQGTQVTVSS | low polyreactivity
18 | QVQLVESGGGLVQAGGSLRLSCAASGRIFVYNAMGWYRQAPGKERELVATISSGGSTNYADSVKGRFTISRDNAKNTVYLQMNSLKPEDTAVYYCAARFYVSNSRISARNYWGQGTQVTVSS | high polyreactivity
19 | QVQLVESGGGLVQAGGSLRLSCAASGRIFVYNTMGWYRQAPGKERELVAAMSWSGVGTYYADSVKGRFTISRDKAKNTVYLQMNSLKPEDTAVYYCNAWIYYGYFIFDYWGQGTQVTVSS | high polyreactivity
20 | QVQLVESGGGLVQAGGSLRLSCAASGRIFVYYAMGWYRQAPGQEREFVATISSTGGSTYYADSVKGRFTISRDNAKNTVYLQMNSLKPEDTAVYYCAVRGWYPGVRYDYWGQGTQVTVSS | low polyreactivity
21 | QVQLVESGGGLVQAGGSLRLSCAASGRIFVYYVMGWYRQAPGKERELVASITFRGSRTYYADSVKGRFTISRDNAKNTVYLQMNSLKTEETAGYYCNADVWASGSRGEGYWGQGSQVTVSS | low polyreactivity

Row | Sequence | polyreactivity (PSR sort gate)
22 | QVQLVESGGGLVQAGGSLRLSCAASGRIFWANAMGWYRQAPGKERELVAAISYSGVSTYYADSVKGRFTISRDNAKNTVYLQMNSLKPADTAVYYCAADRYRKYYYWGQGTQVTVSS | high polyreactivity
23 | QVQLVESGGGLVQAGGSLRLSCAASGRIFWAYAMGWYRQAPGKERELVAVITIGGRTNYADSVKGRFTISRDNAKNTVYLQMNSLKPEDTAVYYCAAERHIITWPYSRYYYWGQGTQVTVSS | high polyreactivity
24 | QVQLVESGGGLVQAGGSLRLSCAASGRIFWFYTMGWNRQAPGKERELVARITTSGGSTYYADSVKGRFTISRDNAKNTVYLQMNSLKPEDTAVYYCAARPRDYHSFSLDYYYWGQGTQVTVSS | high polyreactivity
25 | QVQLVESGGGLVQAGGSLRLSCAASGRIFWGYAMGWYRQAPGKERELVAGITSGGITNYADSVKGRFTISRDNAKNTVYLQMNSLKPEDTAVYYCNKDFWGYPRVRYYYWGQGTQVNVSS | high polyreactivity
26 | QVQLVESGGGLVQAGGSLRLSCAASGRIFWHNAMGWYRQAPGKERELVAAITGGGSTYYADSVKGRFTISRDNAKNTVYLQMNSLKPEDTAVYYCATLGSLRYYWPGYDYWGQGTQGTVSS | high polyreactivity
27 | QVQLVESGGGLVQAGGSLRLSCAASGRIFWINAMGWYRQAPGKERELVAAISWRGDSTYYADSVKGRFTISRDNAKNTVYLQMNSLKPEDTAVYYCAAETRYLYDYWGQGSQVTVSS | high polyreactivity
28 | QVQLVESGGGLVQAGGSLRLSCAASGRIFWKYTMGWYRQAPGKERELVAAIRSGGGSTYYADSVKGRFTISRDNAKNTVYLQLNSLKPEDTAFYYCAAEPSQRYPWSGYDYWGQGTQVTVSS | low polyreactivity
29 | QVQLVESGGGLVQAGGSLRLSCAASGRIFWNYAMGGYRQAPGKERELVASINWSGGSTYYADSVKGRFTISRDNAKNTVYLQMNSLKPEDTAVYYCNKDGRVYLDHDYWGQGTQVTVSS | low polyreactivity
30 | QVQLVESGGGLVQAGGSLRLSCAASGRIFWNYAMGWYRQAPGKERELVAGISSSDGSTYYADSVKGRFTISRDNAKNTVYFQMNSLKPEDTAVYYCAVDKGGRYHVENYYWGQGTQVTVSS | low polyreactivity
31 | QVQLVESGGGLVQAGGSLRLSCAASGRIFWPYAMGWYRQAPGKERELVAAISSSGGSTYYADSVKGRFTISRDNAKNTVYLQRNSLKPEDTAVYYCNAYSGLSYRYGYSYWGQGTQVTVSS | high polyreactivity
32 | QVQLVESGGGLVQAGGSLRLSCAASGRIFWPYAMGWYRQAPGKERELVAAITSGGSTYYADSVKGRFTISRDNAKNTVYLQMNSLKPEDTAVYYCAKRSSGVSVPVAYGGIKRYNSWGQGTQVTVSS | low polyreactivity
33 | QVQLVESGGGLVQAGGSLRLSCAASGRIFWQNAMGWYRQAPGKERELVAAISSRGGTTYYADSVKGRFTISRDNAKNTVYLQMNSLIPEDTAVYYCNAALLLRYRGFFTVAAYDYWGQGTQVTVSS | low polyreactivity
34 | QVQLVESGGGLVQAGGSLRLSCAASGRIFWQNAMGWYRQAPGKERELVAAISSRGGTTYYADSVKGRFTISRDNAKNTVYLQMNSLKPEDTAVYYCNAALLLRYRGFFTVAAYDYWGLGTQVTVSS | low polyreactivity
35 | QVQLVESGGGLVQAGGSLRLSCAASGRIFWRNTMGWYRQAPGKERELVAAITGSSTRTYYADSVKGRFTISRDNAKNTVYLQMNSLKPEDTAVYYCAARSYPYQVAAGYVTRFNYWGQGTQVTVSS | high polyreactivity
36 | QVQLVESGGGLVQAGGSLRLSCAASGRIFWSNAMGWYRQAPGKEREFVAAISSSGGRTYYADSVKGRFTISRDNAKNTVYLQMNSLKPEDTAVYYCAASNGYQAVTYDYWGQGTQVTVSS | high polyreactivity
37 | QVQLVESGGGLVQAGGSLRLSCAASGRIFWSYAMGWYRPAPGKERELVAAIRSGGTTDYADSVKGRFTISRDNAKNTVYLQMNSLKPEDTAVYYCNREYRGAINYIYYYWGQGTQVTVSS | low polyreactivity
38 | QVQLVESGGGLVQAGGSLRLSCAASGRIFWVYAMGWYRQAPGKERELVAAIDWSDGITYYADSVKGRFTISRDNAKNTVYLQMNSRKPEDTAVYYCGAEYVIYQTYNYWGQGTQVTVSS | high polyreactivity
39 | QVQLVESGGGLVQAGGSLRLSCAASGRIFWWYAMGWYRQAPGKERELVAVIDDSGGITYYADSVKGRFTISRDKANNTVYLQMNSLNPEDTAVYYCARNVNAQKVLGGFDSWGQGTQVTVSS | low polyreactivity
40 | QVQLVESGGGLVQAGGSLRLSCAASGRIFWYYAMGWYRQAPGKDWELVATITYSGVRTYYADSVKGRFTISRDNAKNSVYLQMNSLKPEDTAVYYCAAVPGASVYGYYWKFGYWGQGTQLTVSS | high polyreactivity
41 | QVQLVESGGGLVQAGGSLRLSCAASGRIFWYYAMGWYRQAPGKEREFVAAIDWSGGRTYYADSVKGRFTISRDNAKNTVYLQMNSLKPEDTAVYYCAARDRAGRGKSYKPYYYWGQGTQVTVSS | high polyreactivity
